Experimental data as given in US20170121397A1 (PROTHENA BIOSCIENCES, published 2017).
Ends that are not written are not given here.

T1: human C-terminal medin peptide (human, also: conjugated to OVA in the ELISA)
T1 construct: also called human c-terminal peptide; human C-terminal peptide-OVA
T1 peptide: CGGSVQFVA

T2: mouse C-terminal medin peptide (mouse, also: conjugated to OVA in the ELISA)
T2 construct: also called mouse c-terminal peptide; mouse C-terminal peptide-OVA
T2 peptide: CGGHIQYVA

T3: human lactadherin polypeptide (Sino Biological) (human, UniProt Q08431 24-387)
T3 construct: Bought protein; also called MFG-E8; synthetic lactadherin polypeptide
T3 sequence (looked up): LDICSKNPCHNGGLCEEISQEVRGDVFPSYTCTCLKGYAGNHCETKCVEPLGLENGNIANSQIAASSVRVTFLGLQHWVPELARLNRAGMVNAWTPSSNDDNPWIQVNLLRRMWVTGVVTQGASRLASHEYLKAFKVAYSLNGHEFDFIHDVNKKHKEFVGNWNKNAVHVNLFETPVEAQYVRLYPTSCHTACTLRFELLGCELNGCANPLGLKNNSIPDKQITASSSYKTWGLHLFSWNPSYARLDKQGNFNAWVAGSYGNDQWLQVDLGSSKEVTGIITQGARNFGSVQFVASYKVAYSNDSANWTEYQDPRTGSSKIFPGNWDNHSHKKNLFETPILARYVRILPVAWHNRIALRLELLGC

T4: full length human medin (50 aa) (human)
T4 construct: Synthetic peptide (American Peptide, Cat # 366587 in the Western blot); Monomer and multimer/oligomer bands seen in Western blot; also called medin peptide; full-length human medin peptide
T4 peptide: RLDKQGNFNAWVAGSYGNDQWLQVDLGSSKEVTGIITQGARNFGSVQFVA

B1: mouse monoclonal antibody 6B3 (antibody, V domains shown)
VH: QVTLKESGPGILQPSQTLSLTCSFSGFSLSTSDMGVGWIRQPSGKGLEWLAHIWWNDNKYYNIALKNRLTVSKDTSNNQVFLKIASVDTADTATYYCARLVGSWFAYWGQGTLVTVSA
VL: DIQMTQTTSSLSASLGDRVTISCRASQDISNFLSWYHQKPDGTVKLLIYYTSRLHSGVPPRFSGSGSGTDYSLTISNLEQEDIATYFCQQGKTLPPTFGGGTKLEIK
notes: Mouse hybridoma IgG raised against full-length human medin; also called m6B3; PRT6B3
B2: mouse monoclonal antibody 18G1 (antibody, V domains shown)
VH: EVQLVESGGGLVKPGGSLKLSCAASGFTFSSYAMSWVRQTPEKRLEWVAGISSGDYYTYYPDTVKGRFTISRDNARNTLYLQMRSLRSEDTAMYYCVRGRGNTGPRVGYWGQGTSVTVSS
VL: DIVMTQSQKFMSTSVGDRVSVTCKASQNVGTNVAWYQQKPGQSPKALIYSASYRYSGVPDRFTGSGSGTDFTLTISNVQSEDLAEYFCQQYNSFPLTFGAGTKLELK
notes: Mouse hybridoma IgG raised against the human C-terminal medin peptide; also called m18G1; PRT18G1

Legend:
[1] = target: T1, human C-terminal medin peptide; test: direct ELISA, plate coated with human C-terminal peptide-OVA at 2.5 ug/mL, goat anti-mouse HRP, ABTS, OD 405 nm
Method: (§1) To further characterize antibodies of interest, ELISA titration curves were generated to determine antibody binding to human lactadherin (FIG. 1A, Sino Biological In.), full-length human medin peptide (50 aa, FIGS. 1A and B) or to the human or mouse C-terminal peptides (see FIG. 1B). Plates were coated with full length human medin, human C-terminal peptide-OVA, mouse C-terminal peptide-OVA and lactadherin at 2.5 ug/mL, 50 uL/well and incubated for about 1 hour at room temperature. The plates were then blocked with 1% BSA/PBS at room temperature. After about 15 minutes, plates were emptied and antibodies of interest were then added to the plates and after a 1 hour incubation at room temperature, the plates were washed with wash buffer. The detection antibody, goat anti-mouse antibody conjugated to horseradish peroxidase (Jackson ImmunoResearch) diluted 1:2,000 in 0.5% BSA/PBS/TBS-T was added to plates and incubated for 1 hour at room temperature. Finally, the plates were washed and then incubated with ABTS substrate (Thermo Scientific) for 15 minutes at room temperature to visualize signal and read at 405 nm on a microplate reader.

[2] = target: T2, mouse C-terminal medin peptide; test: direct ELISA, plate coated with mouse C-terminal peptide-OVA at 2.5 ug/mL, goat anti-mouse HRP, ABTS, OD 405 nm
Method: as §1

[3] = target: T3, human lactadherin polypeptide (Sino …); test: direct ELISA, plate coated with human lactadherin at 2.5 ug/mL, goat anti-mouse HRP, ABTS, OD 405 nm
Method: as §1

[4] = target: T4, full length human medin (50 aa); test: direct ELISA, plate coated with full length human medin at 2.5 ug/mL, goat anti-mouse HRP, ABTS, OD 405 nm
Method: as §1

[5] = target: T4, full length human medin (50 aa); test: Biacore SPR, antibody captured on anti-mouse chip, medin as analyte, global 1:1 fit
Method: Anti-mouse antibody (GE Heathcare) was immobilized on a sensor chip […] (lacking dextran chains) via amine coupling following the instructions provided in the GE Healthcare anti-mouse kit. Anti-medin monoclonal antibodies of interest were then captured on the chip at a level that ensured a maximum binding of analyte at 30-50 RU. Various concentrations of analyte, full-length human medin (50 aa, FIGS. 1A and B) were passed over the captured ligand at 30 ul/min in running buffer (Hepes buffered saline+0.05% P-20, 1 mg/mL BSA) in either 2-fold or 3-fold dilutions, depending on the magnitude of the spanned concentration range. For each concentration, the reaction proceeded for a period of time needed for the higher analyte concentrations to reach equilibrium during association, as well as at least 10% of signal to decay during dissociation. At least one concentration (not the highest or lowest) was run in duplicate. […] The data were doubled referenced to both an irrelevant sensor not containing the medin antibodies and a 0 nM concentration of medin to account for the dissociation of antibodies from the anti-mouse sensor. The data was then analyzed with a global 1:1 fit using the Biacore software.

Binder	binding result [1]	binding result [2]	EC50 (read off the curve) [3]	EC50 (read off the curve) [4]	Kd [5]	koff [5]	kon [5]	EC50 (read off the curve) [1]	EC50 (read off the curve) [2]
B1	no binding (tested: 10 ug/ml)	no binding (tested: 10 ug/ml)	~0.2 µg/mL	~0.1 µg/mL	1.04 nM	0.000951 s⁻¹	1.11e+06 M⁻¹ s⁻¹	–	–
B2	–	–	–	~0.04 µg/mL	12.1 nM	0.00712 s⁻¹	590000 M⁻¹ s⁻¹	~0.07 µg/mL	~0.05 µg/mL
